# Assay results from patent publication US20200022997A1, “ORAL ANTICANCER PRODRUGS, THEIR PREPARATION METHODS AND APPLICATIONS” (Seoul National university R&DB Foundation, priority 2018, published 2020).
# Like-named read-outs stand apart in the source and are kept apart here. *1 amine or outer side, *2 acyl side, *3 side chain or, on linkers, in order; H or OH if unused. Where a SMILES comes first, the peptide text is derived from it. [ ]: non-standard residue; d: D form. The star is where a group is joined. Doxorubicin(3'-N) = COc1cccc2c1C(=O)c1c(O)c3c(c(O)c1C2=O)C[C@@](O)(C(=O)CO)C[C@@H]3O[C@H]1C[C@H](N*)[C@H](O)[C@H](C)O1; PABC = O=C(OCc1ccc(N[*:1])cc1)[*:2]
# Key:
# [1] = tested on: MDA-MB-231 human breast cancer cell line; test: MTT cytotoxicity assay combined with radiation (4 Gy) and/or caspase inhibitor Z-VAD-FMK; type: cell-based; details: by itself, without radiation
# Description: The degree of cytotoxicity of DEVD-S-DOX was assessed using an in vitro MTT assay and combined radiation therapy in the MDA-MB-231 human breast cancer cell line. The MDA-MB-231 cell line was irradiated with radiation and the expression of caspase-3 was evaluated. Western blot (FIG. 6A) and a cellular caspase-3 activity assay (FIG. 6B) confirmed that the expression of caspase-3 increased over time.
# Next, the cancer cells were cultured in a 96-well microplate at the density of 5×10^4 cell/well in DMEM (10% FBS) medium for 24 hours, and then treated with DEVD-S-DOX or 5 μM Doxorubicin. Some of the test groups were also treated with Z-VAD-FMK, which is a caspase inhibitor. Then cells were irradiated with 4 Gy of radiation, and after 24 and 48 hours, cell viability was assessed against the controls using an MTT assay (FIG. 7). […] This confirmed that caspase-3 was expressed via radiation therapy in the cancer cells, which then activated DEVD-S-DOX and led to a synergistic cytotoxic effect.
# [2] = rat, in vivo; for Cmax: Sprague Dawley
# Description: (§1) Quantitative analysis was performed by measuring the fluorescence intensity in plasma, and using a standard curve to determine concentration (FIG. 9).
# in vivo = details: Sprague Dawley, rat
# Description: as §1
# [3] = tested on: human breast cancer cells MDA-MB-231; test: MTT cytotoxicity assay with or without human recombinant caspase-3; details: read-out: IC50 cytotoxicity (MTT); pretreated with caspase-3 (500 ng/mL), 48 hours
# Description: The cytotoxicity of DEVD-S-DOX in human breast cancer cells MDA-MB-231 was assessed using MTT assay with or without the treatment with human recombinant caspase-3. After the cancer cells were placed on a 96-well microplate at the concentration of 5×10^4 cell/well and cultured in DMEM (10% FBS) media for 24 hours, doxorubicin, DEVD-S-DOX, and DEVD-S-DOX, pre-treated with caspase-3 (500 ng/mL), were added at concentrations ranging from 0.01-100 μM, and further cultured for 48 hours. After that, 10 μL of MTT agent were added to each well and cultured for 2 hours at 37° C. until a blue precipitate forms. At this point, 100 μL of detergent agent was added and cultured for 4 hours at room temperature. Optical density was measured in each well at 570 nm to determine cell viability.
# [4] = Toxicity evaluation: hematological and biochemical parameters and histology after one month of administration; details: 2.5 mg/kg
# MDA-MB-436 xenograft = test: MDA-MB-436 xenograft, daily oral dosing with or without olaparib; type: in vivo, female NSG SCID mouse; details: monotherapy, 50 mg/kg intraperitoneal, 5 days on/2 days off for two weeks
# Description: Human breast cancer MDA-MB-436 cells were transplanted into a female NSG SCID mouse, and when the cancer tumor size reached 100-150 mm^3, 3 mg/kg of DEVD-S-DCX/DCK (based on the docetaxel content), was orally administered daily. 50 mg/kg of olaparib was administered by intraperitoneal injection daily for the first five days of every week for two weeks (5 days on/2 days off). In addition, a test group without olaparib was daily orally administered 3 mg/kg DEVD-S-DCX/DCK (based on the docetaxel content).
structure (smiles),measurement,setting,value
"COc1cccc2c1C(=O)c1c(O)c3c(c(O)c1C2=O)C[C@@](O)(C(=O)CO)C[C@@H]3O[C@H]1C[C@H](NC(=O)OCc2ccc(NC(=O)[C@H](CC(=O)O)NC(=O)[C@@H](NC(=O)[C@H](CCC(=O)O)NC(=O)[C@H](CC(=O)O)NC(=O)CNC(=O)[C@H](CCCCN)NC(C)=O)C(C)C)cc2)[C@H](O)[C@H](C)O1 [DEVD-S-DOX, Ac-KGDEVD-PABC-Doxorubicin] (Ac-KGDEVD[PABC]-{Doxorubicin(3'-N)})",cytotoxicity (MTT),[1],did not show any noticeable cytotoxicity
same,Cmax,"[2]; iv, 1 mg/kg",3370 ± 310 ng/mL
same,Cmax,"[2]; po, 10 mg/kg",72 ± 33 ng/mL
same,BA (bioavailability),"[2]; po, 10 mg/kg",negligible bioavailability
same,AUC(0-inf),"in vivo; iv, 1 mg/kg",3370 ± 250 ng·h/mL
same,AUC(0-t),"in vivo; iv, 1 mg/kg",3110 ± 290 ng·h/mL
same,MRT,"in vivo; iv, 1 mg/kg",2.01 ± 0.28 h
same,AUC(0-inf),"in vivo; po, 10 mg/kg",130 ± 60 ng·h/mL
same,AUC(0-t),"in vivo; po, 10 mg/kg",100 ± 50 ng·h/mL
same,MRT,"in vivo; po, 10 mg/kg",1.18 ± 0.03 h
same,Tmax,"in vivo; po, 10 mg/kg",1 h
same,bioavailability,"in vivo; po, 10 mg/kg",0.45 ± 0.22%
same,IC50,[3],1.78 µM
same,BASO,[4],1.0 ± 0.5%
same,MONO,[4]; normal range 1.0-5.0,6.8 ± 1.7%
same,WBC,[4]; normal range 4.0-15.0,12.8 ± 5.4 m/mm^3
same,RBC,[4]; normal range 6.0-11.0,7.1 ± 1.4 M/mm^3
same,Segment,[4]; normal range 10.0-30.0,18.2 ± 0.7%
same,MCH,[4]; normal range 13.0-22.0,16.4 ± 1.8 pg
same,Hb,[4]; normal range 14.0-18.0,11.4 ± 1.3 g/dL
same,MCHC,[4]; normal range 24.0-40.0,33.4 ± 3.8 g/dL
same,Hct,[4]; normal range 35.0-45.0,35.1 ± 7.2%
same,MCV,[4]; normal range 35.0-50.0,49.2 ± 7.2 fL
same,Lympho,[4]; normal range 70.0-81.0,71.0 ± 4.9%
same,Platelet,[4]; normal range 600-1000,1008 ± 392 m/mm^3
same,EOS,[4]; normal range <10.0,2.8 ± 1.4%
O=C(c1cc(Cc2n[nH]c(=O)c3ccccc23)ccc1F)N1CCN(C(=O)C2CC2)CC1 [olaparib],tumor growth suppression,MDA-MB-436 xenograft,ineffective
